Measured values taken from US20220401560A1, “PEPTIDE ENCAPSULATING FERRITIN” (Ajinomoto Co., Inc., priority 2019, published 2022).
No end group written: not given here.

Biological target: T1, ferritin (FTH) (Homo sapiens, UniProt P02794)
T1 construct: made in house; host or cells: Escherichia coli BL21 (DE3), plasmid pET20-FTH
Assay: Encapsulation of fluorescent dye-modified peptide into FTH, column chromatography with absorbance at 480 nm and LC-MS
Protocol: Of a 50 mM glycine hydrochloride buffer (pH 2.3) that contains FTH (chemical formula weight: 509,421) at a final concentration of 5 mg/mL and the peptide at a final concentration of 0.5 mM, 0.5 mL was left to stand at room temperature for 15 minutes. Next, 50 μL of a 1 M Tris hydrochloride buffer (pH 9.0) was added for neutralization, and the resulting solution was left to stand at room temperature for 3 hours. After the standing, the resulting solution was centrifuged (at 15,000 rpm for one minute). Then, the supernatant was collected and the volume was increased up to 3 mL with a 10 mM Tris hydrochloride buffer (pH 8). The resulting solution was injected into the HiPrep 26/60 Sephacryl S-300 HR column (GE Healthcare Inc.) equilibrated with a 10 mM Tris-HCl buffer (pH 8.0) to separate and purify 24-mer FTH by size at a flow rate of 1.3 mL/minute. The purified ferritin was analyzed using a HiPrep 16/60 Sephacryl S-300 HR column (GE Healthcare Inc.) equilibrated with a 10 mM Tris-HCl buffer (pH 8.0) at a flow rate of 0.5 mL/minute and confirmed as the absorbance at 480 nm unobservable from FTH only, at the same position as that of a peak of FTH.
The solution containing the FTH was concentrated to 0.25 mL by centrifugal ultrafiltration using Vivaspin 20-100K (GE Healthcare Inc.). […] For the LC-MS analysis, 50 μL of a 1 M glycine hydrochloride buffer (pH 2.3) was added to 50 μL of the sample solution and then the resulting solution was left to stand at room temperature for 15 minutes. To the solution 900 μL of ethanol was added. Next, the resulting solution was stirred vigorously and then centrifuged (at 15,000 rpm for five minutes) to collect its supernatant. The supernatant was analyzed using LCMS-2020 (Shimadzu Corporation) as LC-MS, inertsil (Registered trademark) ODS-3 with a particle diameter of 2 μm and 2.1 mm×50 mm (GL science) as a column. Into the column, 10 μL of the sample was injected, and eluded at a flow rate of 0.2 mL/min for 10 minutes such that a mixing ratio of a solution A (0.1% formic acid/99.9% acetonitrile) and a solution B (50% water/50% acetonitrile) was from 95:5 to 95:5. The concentration of the contained protein was determined using a protein assay CBB solution (Nacalai Tesque, Inc.) in terms of bovine albumin as a standard. The concentration of the encapsulated peptide was determined based on the absorbance at 480 nm of the fluorescent dye FAM to which PKC-F is modified.
First, the construction of FTH encapsulating two kinds of fluorescent dye-modified peptides [5(6)—FAM-[…] (SEQ ID NO: 10), FAM-SV40, chemical formula weight 1,516, and 5(6)—FAM-[…] […] (SEQ ID NO: 11), FAN-Np, chemical formula weight 384] was attempted. 0.5 mL of a 50 mM glycine hydrochloride buffer (pH 2.3) that contains FTH (chemical formula weight 509,421) at a final concentration of 5 mg/mL and a peptide at a final concentration of 0.5 mM, was left to stand at room temperature for 15 minutes. Next, 50 μL of a 1 M Tris hydrochloride buffer (pH 9.0) was added for neutralization, and the resulting solution was left to stand at room temperature for 3 hours. […] The absorbance at […] was confirmed at the same elusion position as that of ferritin 24-mer, for ferritin that was used for the operation to encapsulate FAM-SV40 therein. […] Next, the peptide amount of FAM-SV40 encapsulated in purified ferritin was quantified based on the 480 nm absorbance and by CBB staining with use of ferritin-amount-albumin as a standard.

T1 sequence (P02794 whole entry): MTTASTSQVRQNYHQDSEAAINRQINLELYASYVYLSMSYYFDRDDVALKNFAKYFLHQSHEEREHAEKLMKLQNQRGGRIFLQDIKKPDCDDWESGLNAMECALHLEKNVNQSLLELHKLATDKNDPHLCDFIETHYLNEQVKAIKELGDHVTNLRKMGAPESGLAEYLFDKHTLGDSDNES

In the case of “5(6)-FAM-CGGPKKKRKVG (SEQ ID NO: 10) ({5(6)‑FAM}-CGGPKKKRKVG) [FAM-SV40, fluorescent dye-modified peptide, linear]”, the “molecules of peptide encapsulated in one molecule of ferritin on average” value (FTH, from molar ratio) is reported as 2.5 molecules and the “encapsulation of peptide in FTH” value (absorbance at 480 nm at elution position of 24-mer FTH, LC-MS) is reported as “encapsulated in ferritin”.
